Measurements published in patent publication US20170313756A1 (Sanofi, published 2017).
[ ]: non-standard residue; d: D form. The star is where a group is joined. Butanoyl(4-Ph) = O=C(CCCc1ccccc1)*; Stearyl = stearyl group

What was measured:
[1] = molecular target: mouse MC1R (on murine B16-F1 melanoma cells) (mouse, UniProt Q01727 1-315); assay: cell-based or functional assay
[2] = molecular target: T1, melanocortin 1 receptor (MC1R) (UniProt Q01726 1-317, limits assumed); assay: 125I-NDP-MSH competition, HEK293 membranes
T1 construct: whole, on cells; Used as membrane preparations, not whole cells; also called MCR-1; MCR1
Text: (§1) The mixtures were filtered through 96-well GFC filters (Millipore, Billerica, Mass.), washed 3 times with binding buffer without BSA, dried and counted.

[3] = molecular target: T2, melanocortin 3 receptor (MC3R) (UniProt P41968 1-323, limits assumed); assay: 125I-NDP-MSH competition, HEK293 membranes
T2 construct: whole, on cells; Membrane preparations; also called MCR-3
Text: as §1

[4] = molecular target: T3, melanocortin 5 receptor (MC5R) (UniProt P33032 1-325, limits assumed); assay: 125I-NDP-MSH competition, HEK293 membranes
T3 construct: whole, on cells; Membrane preparations; also called MCR-5
T3 sequence (P33032 whole entry): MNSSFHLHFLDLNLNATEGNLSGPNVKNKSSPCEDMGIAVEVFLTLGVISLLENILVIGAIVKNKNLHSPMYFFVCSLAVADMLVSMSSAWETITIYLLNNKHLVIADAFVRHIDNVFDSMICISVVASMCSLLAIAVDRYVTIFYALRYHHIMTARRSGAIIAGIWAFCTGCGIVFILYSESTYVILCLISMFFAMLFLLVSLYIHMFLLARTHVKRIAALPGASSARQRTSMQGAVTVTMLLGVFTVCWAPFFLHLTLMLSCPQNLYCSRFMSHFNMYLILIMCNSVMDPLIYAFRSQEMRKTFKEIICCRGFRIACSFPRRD
Text: as §1

Chain of mouse MC1R (on murine B16-F1 melanoma cells) (Q01727 whole entry): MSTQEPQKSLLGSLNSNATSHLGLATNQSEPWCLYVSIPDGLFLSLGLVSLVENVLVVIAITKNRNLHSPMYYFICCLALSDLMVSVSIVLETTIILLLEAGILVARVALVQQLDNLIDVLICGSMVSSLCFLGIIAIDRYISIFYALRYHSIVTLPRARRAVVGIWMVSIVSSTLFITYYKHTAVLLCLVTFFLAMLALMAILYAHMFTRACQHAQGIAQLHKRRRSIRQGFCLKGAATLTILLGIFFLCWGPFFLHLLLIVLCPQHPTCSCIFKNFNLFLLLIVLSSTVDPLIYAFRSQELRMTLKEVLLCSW
T1 sequence (Q01726 whole entry): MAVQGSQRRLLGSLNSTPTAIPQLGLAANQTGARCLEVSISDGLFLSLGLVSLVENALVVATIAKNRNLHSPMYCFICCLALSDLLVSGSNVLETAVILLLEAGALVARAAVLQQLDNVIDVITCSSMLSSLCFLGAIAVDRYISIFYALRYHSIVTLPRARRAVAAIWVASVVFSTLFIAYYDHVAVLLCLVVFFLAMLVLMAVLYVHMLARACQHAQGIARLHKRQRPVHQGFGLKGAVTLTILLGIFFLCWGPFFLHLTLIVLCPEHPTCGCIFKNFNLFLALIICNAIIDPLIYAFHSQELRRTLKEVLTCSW
T2 sequence (P41968 whole entry): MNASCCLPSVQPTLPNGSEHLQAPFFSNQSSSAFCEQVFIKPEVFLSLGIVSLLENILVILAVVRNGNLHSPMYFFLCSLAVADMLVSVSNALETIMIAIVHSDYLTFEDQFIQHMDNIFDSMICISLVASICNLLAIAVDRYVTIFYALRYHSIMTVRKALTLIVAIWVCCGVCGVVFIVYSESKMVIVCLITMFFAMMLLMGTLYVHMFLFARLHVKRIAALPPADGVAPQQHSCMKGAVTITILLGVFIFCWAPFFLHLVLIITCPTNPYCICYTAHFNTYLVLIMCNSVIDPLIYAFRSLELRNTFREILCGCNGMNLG

Binder	EC50, cAMP in B16-F1 cells [1] [nM]	further results
VPKGWRXHEMSYS (N-terminal acetyl (Ac); C-terminal amide; D-cyclohexylalanine (D-Cha) at 7; D-isomers at all residues except Gly 4) [peptide 869]	14	–
Ac-[dV][dP][dK]G[dW][dR][dF][dH][dS][dI][dI][dS][dS]-NH2 (SMILES CC[C@@H](C)[C@@H](NC(=O)[C@@H](CO)NC(=O)[C@@H](Cc1c[nH]cn1)NC(=O)[C@@H](Cc1ccccc1)NC(=O)[C@@H](CCCNC(=N)N)NC(=O)[C@@H](Cc1c[nH]c2ccccc12)NC(=O)CNC(=O)[C@@H](CCCCN)NC(=O)[C@H]1CCCN1C(=O)[C@H](NC(C)=O)C(C)C)C(=O)N[C@@H](C(=O)N[C@H](CO)C(=O)N[C@H](CO)C(N)=O)[C@H](C)CC) [peptide 886]	2	–
SYSMEHXRWGKPV (N-terminal acetyl (Ac); C-terminal amide; L-cyclohexylalanine (L-Cha) at 7, also called analog 892) [peptide 892]	21	Ki [2]: 0.51 nM
{Butanoyl(4-Ph)}-H[dF]RW-NH2 [(Ph(CH2)3CO) HfRW (819)]	–	Ki [2]: 0.07 nM; Ki [3]: 277 nM; Ki [4]: ~3000 nM
VPKGWRFHEMSYS (N-terminal acetyl (Ac); C-terminal amide; L-Trp at 5; D-isomers at all other residues except Gly 4) [peptide 893]	270	–
Stearyl-H[dF]RW-NH2 [(Stearyl) HfRW (820)]	–	Ki [2]: 1.3 nM; Ki [3]: 1370 nM; Ki [4]: 860 nM
VPKGWRXHEXSYS (N-terminal acetyl (Ac); C-terminal amide; D-Cha at 7; D-buthionine at 10; D-isomers at all residues except Gly 4) [peptide 890]	3600	–
VPKGWRFHEMSYS (N-terminal acetyl (Ac); C-terminal amide; L-Arg at 6; D-isomers at all other residues except Gly 4) [peptide 894]	212000	–
VPKGWRFHEXSYS (N-terminal acetyl (Ac); C-terminal amide; D-buthionine at 10; D-isomers at all residues except Gly 4) [peptide 878]	130	–
VPKGWRFREMSYS (N-terminal acetyl (Ac); C-terminal amide; D-isomers at all residues except Gly 4) [peptide 872]	2000	–
VPKGWRFHEMSYS (N-terminal acetyl (Ac); C-terminal amide; L-His at 8; D-isomers at all other residues except Gly 4) [peptide 895]	300	–
Ac-[dV][dP][dK]G[dW][dR]F[dH][dS][dI][dI][dS][dS]-NH2 (SMILES CC[C@@H](C)[C@@H](NC(=O)[C@@H](CO)NC(=O)[C@@H](Cc1c[nH]cn1)NC(=O)[C@H](Cc1ccccc1)NC(=O)[C@@H](CCCNC(=N)N)NC(=O)[C@@H](Cc1c[nH]c2ccccc12)NC(=O)CNC(=O)[C@@H](CCCCN)NC(=O)[C@H]1CCCN1C(=O)[C@H](NC(C)=O)C(C)C)C(=O)N[C@@H](C(=O)N[C@H](CO)C(=O)N[C@H](CO)C(N)=O)[C@H](C)CC) [peptide 880]	23	–
VPKGWRFHEMSYS (N-terminal acetyl (Ac); C-terminal amide; D-isomers at all residues except Gly 4) [retro-inverso α-MSH]	9700	–
